According to patent US5578451A, “Methods and systems for screening potential alzheimer's disease therapeutics” (The General Hospital Corporation, priority 1995, dated 1996):
Values joined by “and” are separate entries in the source; they are usually repeats but may differ in a detail not shown here. Identical values can stand only once. Like-named read-outs stand apart in the source and are kept apart here.

Assays:
[1] = target: Trimeric Go purified from bovine brain (bovine) (UniProt P08239); assay: 22C11-precipitate of Sf9 membranes incubated with 1 µg purified Go, immunoblot
[2] = tested on: Go reconstituted in phospholipid vesicles; assay: GTPγS binding to Go reconstituted in phospholipid vesicles; type: biochemical, bovine; details: FIG. 1(e)
Experimental: (§1) Biophys. Acta 161:1280-1285, 1989.
GTPγS binding to peptides was negligible.
Reconstitution of Go into phospholipid vesicles was accomplished with 1 mg/ml of phosphatidylcholine, using the gel filtration method (Nishimoto et al., J. Biol. Chem. 264:14029-14038, 1989). In a final incubation for GTPγS binding, 5 nM of reconstituted Go was used.
As illustrated in FIG. 1(e), Go reconstituted in phospholipid vesicles was incubated with transmembrane region-connected peptide 20 ([…], SEQ ID NO: 18; .quadrature.) or the partial sequence of the APP transmembrane domain alone (TVIVITLVML, SEQ ID NO: 7; .quadrature.). Transmembrane region-connected peptide 20 (SEQ ID NO: 18) was also incubated with Go in the absence of phospholipids and the presence of 0.07% CHAPS (.diamond-solid.). The transmembrane region-connected peptide 20 (SEQ ID NO: 18) stimulated Go reconstituted in phospholipid vesicles with a potency 10 times greater than that of peptide 20 (SEQ ID NO: 1). […]
Preactivation of pertussis toxin (Funakoshi, Japan) was carried out by treating the toxin with 100 μM ATP and 1 mM DTT for 10 min at 30° C. […] Increasing concentrations of peptide 20 (SEQ ID NO: 1) were incubated for 2 min with Go reconstituted in phospholipid vesicles which had been treated with pertussis toxin in the presence (.diamond-solid.) or absence (.quadrature.) of NAD, and GTPγS binding to Go was measured.

Go [3] = target: T1, Go (Bos taurus, UniProt P08239)
Experimental: Trimeric Go was purified to homogeneity from bovine brain as described (Katada et al., FEBS Lett. 213:353-358, 1987). This Go preparation was stored in 20 mM Hepes/NaOH (pH 7.4), 1 mM EDTA, and 0.7% CHAPS, and diluted ≥10 fold for assays.
GTPγS binding to Go was assayed in a buffer containing 50 mM Hepes/NaOH (pH 7.4), 100 μM EDTA, 120 μM MgCl2, and 60 nM [^35 S]GTPγS (DuPont-New England Nuclear) at 37° C., and the fraction of total Go bound to GTPγS was measured as described (Okamoto et al., Cell 62:709-717, 1990). […] The total amount of Go in a given preparation was defined as the saturation amount of GTPγS bound to Go following a 30-min incubation of Go with 10 mM Mg^2+ and ≥60 nM GTPγS at 30° C.
In the experiment shown in FIG. 1(b), 10 nM Go was incubated with water or 100 μM of each peptide for 2 min, and the amount of GTPγS bound to Go at the end of this period was measured. In the experiment shown in FIG. 1(c), 10nM Go was incubated with water (O) or 100 μM peptide 20 (SEQ ID NO: 1) (.oval-solid.), and GTPγS binding was measured at the indicated times. […] GTPγS binding to Go in the presence or absence of peptide 20 (SEQ ID NO: 1) obeyed first-order kinetics according to the equation
(B is the binding at time t; BT is the total binding observable at infinite time; and kapp is the rate constant for GTPγS binding).
In this experiment, 10 nM Go was incubated with various concentrations of [sequence] (peptide 20, SEQ ID NO: 1; .quadrature.), [sequence] (H-deleted, SEQ ID NO: 14; .diamond.), [sequence] (HH-deleted, SEQ ID NO: 15; .quadrature.), [sequence] (RHLSK-deleted, SEQ ID NO: 16; .diamond-solid.), or [sequence] (KQYTSI-added, SEQ ID NO: 17; .box-solid.), and GTPγS binding to Go at 2 min. was measured.

APP-Go complex = target: T2, APP-Go complex (Bos taurus, UniProt P08239); assay: 22C11 (anti-APP) immunoprecipitation of APP and co-precipitation of Go from solubilized brain membranes; type: binding, bovine; details: 10 μM peptide, FIG. 2d
T2 construct: APP immunoprecipitated with 22C11, co-precipitated Go alpha detected by GC/2
Experimental: As a control, 2 μg/ml of rabbit IgG was used. After overnight shaking at 4° C., the immunoprecipitated sample was centrifuged at 5000 rpm for 5 min. The pellet was washed three times with ice-cold buffer C and the final pellet was applied to SDS-PAGE. Electroblotting onto a PVDF sheet was performed as described (Okamoto et al., J. Biol. Chem. 266:1085-1091, 1991). After blocking with PBS containing 2% skim milk and 1% BSA, the sheet was incubated with the first antibody [1 μg/ml of 22C11; 1/1000 dilution of anti-Go α monoclonal antibody GC/2 (DuPont-New England Nuclear); 1/1000 dilution of 1C1, a monoclonal antibody against the C-terminal peptide 677-695 of APP695 ] for 4 h, and then exposed to horseradish peroxidase-conjugated goat IgG reactive for mouse or rabbit immunoglobulins for 2-4 h at room temperature. The antigenic bands were detected with an ECL detection kit (Amersham). YL1/2 (SERA Lab), an anti-tubulin antibody, was used at 1:500 dilution for immunodetection.
In this experiment, solubilized brain membranes were incubated with 22C11-coated beads in the presence of 10 μM peptide 20 (SEQ ID NO: 1; 2nd and 5th lanes) or 10 μM of the control peptide, peptide677-695 of APP (SEQ ID NO: 13; 3rd and 6th lanes), or in the absence of both of these peptides (1st and 4th lanes). In this experiment, an anti-mouse IgG antibody different from that used in (a) was employed.

Gi1 = assay: Effect of peptide on G proteins other than Go: Gi1; type: biochemical; details: data not shown
From the text: as §1

Gi2 = assay: Effect of peptide on G proteins other than Go: Gi2; type: biochemical; details: data not shown
From the text: as §1

Gi3 = assay: Effect of peptide on G proteins other than Go: Gi3; type: biochemical; details: data not shown
From the text: as §1

GS = assay: Effect of peptide on G proteins other than Go: GS; type: biochemical; details: data not shown
From the text: as §1

c-Ki-ras p21 = assay: Effect of peptide on low molecular weight G protein c-Ki-ras p21; type: biochemical; details: data not shown
From the text: as §1

smg p25A = assay: Effect of peptide on low molecular weight G protein smg p25A; type: biochemical; details: data not shown
From the text: as §1

Go [4] = target: T1, Go; assay: Storage stability of the Go-activating ability of the peptide; type: physicochemical, bovine; details: storage at either -4° C. or -20° C.
[5] = target: Trimeric Go purified from bovine brain (bovine) (UniProt P08239)
[6] = 10 nM Go, various peptide concentrations, 2 min, FIG. 1(d)

T1 sequence (P08239 whole entry): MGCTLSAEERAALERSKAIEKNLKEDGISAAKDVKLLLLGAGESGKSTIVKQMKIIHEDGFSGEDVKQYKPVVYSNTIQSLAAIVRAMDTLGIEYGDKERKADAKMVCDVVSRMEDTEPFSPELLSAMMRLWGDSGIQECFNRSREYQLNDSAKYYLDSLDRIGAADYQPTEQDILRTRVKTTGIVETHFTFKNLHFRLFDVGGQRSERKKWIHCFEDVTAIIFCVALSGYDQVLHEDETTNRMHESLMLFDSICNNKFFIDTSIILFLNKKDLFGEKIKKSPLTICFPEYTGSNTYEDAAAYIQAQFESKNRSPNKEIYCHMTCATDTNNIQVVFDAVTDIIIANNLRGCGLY
T1 sequence (P62871 whole entry partner): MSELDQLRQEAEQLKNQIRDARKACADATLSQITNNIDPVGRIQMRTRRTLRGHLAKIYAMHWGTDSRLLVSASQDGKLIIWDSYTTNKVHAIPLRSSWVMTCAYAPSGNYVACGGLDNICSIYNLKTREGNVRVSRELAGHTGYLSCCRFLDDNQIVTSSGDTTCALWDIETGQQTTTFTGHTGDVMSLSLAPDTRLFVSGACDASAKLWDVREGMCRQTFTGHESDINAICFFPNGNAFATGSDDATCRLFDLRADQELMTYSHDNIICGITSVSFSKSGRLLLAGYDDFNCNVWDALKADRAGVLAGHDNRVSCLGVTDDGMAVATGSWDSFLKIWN
T1 sequence (P63212 1-68 partner): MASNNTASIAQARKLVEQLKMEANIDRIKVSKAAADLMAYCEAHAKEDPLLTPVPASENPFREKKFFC
T2 sequence (P08239 whole entry): as the sequence (P08239 whole entry) above
T2 sequence (Q28053 whole entry partner): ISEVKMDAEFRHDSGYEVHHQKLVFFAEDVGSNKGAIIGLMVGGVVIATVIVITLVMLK
T2 sequence (P62871 whole entry partner): as the sequence (P62871 whole entry partner) above
T2 sequence (P63212 1-68 partner): as the sequence (P63212 1-68 partner) above
recombinant full-length APP695 expressed in Sf9 cells (receptor), sequence (chain): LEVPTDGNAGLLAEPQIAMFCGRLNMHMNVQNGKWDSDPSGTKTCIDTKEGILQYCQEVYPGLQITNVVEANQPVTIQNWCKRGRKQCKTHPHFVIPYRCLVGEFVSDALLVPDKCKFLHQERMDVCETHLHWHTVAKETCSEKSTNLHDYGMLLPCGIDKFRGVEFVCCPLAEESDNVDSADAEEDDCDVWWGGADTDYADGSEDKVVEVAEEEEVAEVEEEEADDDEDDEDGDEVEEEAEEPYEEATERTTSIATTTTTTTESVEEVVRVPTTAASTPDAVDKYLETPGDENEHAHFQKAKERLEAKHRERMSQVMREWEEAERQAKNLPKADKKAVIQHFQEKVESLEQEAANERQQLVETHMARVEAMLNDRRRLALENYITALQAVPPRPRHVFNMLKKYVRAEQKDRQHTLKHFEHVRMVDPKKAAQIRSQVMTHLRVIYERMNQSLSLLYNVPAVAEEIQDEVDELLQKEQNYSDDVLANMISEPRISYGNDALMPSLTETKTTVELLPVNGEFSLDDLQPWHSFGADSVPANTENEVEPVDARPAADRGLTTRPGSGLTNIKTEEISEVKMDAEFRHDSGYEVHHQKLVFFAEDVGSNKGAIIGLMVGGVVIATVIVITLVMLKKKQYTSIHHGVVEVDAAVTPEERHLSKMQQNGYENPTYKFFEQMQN

## recombinant full-length APP695 expressed in Sf9 cells (receptor)
[1]
  amount of reconstituted Go precipitated: 0.05 µg/tube and 0.1 µg/tube

## TVIVITLVML [APP(639-648), a portion of the transmembrane region of APP]
[2]
  effect on Go (GTPγS binding): without effect on Go

## HHGVVEVDAAVTPEE [RHLSK-deleted]
Go [3]; [6]
  potency relative to peptide 20 in stimulating Go: several times less potent than peptide 20

## TVIVITLVMLHHGVVEVDAAVTPEERHLSK
[2]
  potency in stimulating Go relative to peptide 20: 10 times
Go [3]; absence of phospholipids, presence of 0.07% CHAPS, FIG. 1(e)
  effect on Go compared with peptide 20: no more potent than peptide 20

## GVVEVDAAVTPEERHLSK [HH-deleted]
Go [3]; [6]
  Go-activator function of peptide 20 variants (GTPγS binding to Go at 2 min): nullified Go -activator function

## MQQNGYENPTYKFFEQMQN [APP(677-695), peptide corresponding to C-terminal residues 677-695 of APP695, used as control peptide]
APP-Go complex
  22C11-mediated co-precipitation of Go: no discernable effect

## HHGVVEVDAAVTPEERHLSK [peptide 20]
Gi1
  stimulation of Gi1: not stimulated
Gi2
  stimulation of Gi2: not stimulated
Gi3
  stimulation of Gi3: not stimulated
GS
  stimulation of GS: not stimulated
c-Ki-ras p21
  stimulation of c-Ki-ras p21: not stimulated
Smg p25A
  stimulation of smg p25A: not stimulated
APP-Go complex
  22C11-mediated co-precipitation of Go: prevents the 22C11-mediated co-precipitation of Go
  precipitation of APP by 22C11: did not affect the precipitation of APP by 22C11
Go [4]
  ability to activate Go during storage: gradually decreased during storage
Go [3]; 10 nM Go, increasing peptide concentrations, FIG. 1(d)
  rate constant of GTPγS binding to Go: stimulated the rate constant of GTPγS binding to Go in a dose-dependent manner
Go [3]; low (≤100 nM) or high (≥10 mM) Mg2+ concentrations
  stimulation of GTPγS binding to Go: could not be observed
Go [3]; purified trimeric go
  stimulation of GTPγS binding to Go: 2-3 fold

## HGVVEVDAAVTPEERHLSK [H-deleted]
Go [3]; [6]
  Go-activator function of peptide 20 variants (GTPγS binding to Go at 2 min): nullified Go -activator function

## TVIVITLVMLHHGVVEVDAAVTPEERHLSK [transmembrane region-connected peptide 20]
[5]
  GTPγS binding to Go reconstituted in phospholipid vesicles (times greater potency than peptide 20): 10
